This note sets out measurements from patent US20030044899A1.

This experiment concerns the target integrin α3β1 (human) (UniProt P26006). The experiment can be described thus: cell-based or functional assay.
Sequence of UniProt P26006 (P26006 33-1051, chain 1 of 2): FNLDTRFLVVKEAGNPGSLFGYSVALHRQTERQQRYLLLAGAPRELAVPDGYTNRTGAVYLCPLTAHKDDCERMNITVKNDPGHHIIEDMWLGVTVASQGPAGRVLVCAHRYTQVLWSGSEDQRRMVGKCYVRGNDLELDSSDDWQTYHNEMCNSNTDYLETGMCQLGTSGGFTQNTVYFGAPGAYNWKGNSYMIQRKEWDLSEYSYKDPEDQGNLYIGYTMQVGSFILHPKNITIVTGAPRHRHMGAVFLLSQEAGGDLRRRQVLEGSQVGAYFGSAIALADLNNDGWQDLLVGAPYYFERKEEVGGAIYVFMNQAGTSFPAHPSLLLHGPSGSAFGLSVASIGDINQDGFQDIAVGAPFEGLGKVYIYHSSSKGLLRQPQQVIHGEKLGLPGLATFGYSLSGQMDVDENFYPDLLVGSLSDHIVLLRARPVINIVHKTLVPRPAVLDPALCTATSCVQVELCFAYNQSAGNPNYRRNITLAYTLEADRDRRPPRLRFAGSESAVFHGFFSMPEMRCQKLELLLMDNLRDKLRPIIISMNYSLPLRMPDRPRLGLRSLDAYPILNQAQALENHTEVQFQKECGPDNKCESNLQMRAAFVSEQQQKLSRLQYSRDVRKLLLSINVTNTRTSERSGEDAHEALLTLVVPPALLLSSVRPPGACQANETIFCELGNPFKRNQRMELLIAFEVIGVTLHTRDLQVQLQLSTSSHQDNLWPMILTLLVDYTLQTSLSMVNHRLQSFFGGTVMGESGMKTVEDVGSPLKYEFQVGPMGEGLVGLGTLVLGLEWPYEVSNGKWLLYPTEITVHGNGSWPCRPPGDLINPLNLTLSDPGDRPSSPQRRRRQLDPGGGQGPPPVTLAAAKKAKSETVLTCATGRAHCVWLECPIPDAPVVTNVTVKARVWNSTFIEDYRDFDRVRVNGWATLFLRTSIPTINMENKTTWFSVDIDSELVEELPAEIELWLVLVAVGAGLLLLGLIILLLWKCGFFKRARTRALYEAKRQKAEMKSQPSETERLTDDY
Sequence of UniProt P26006 (P05556 21-798, chain 2 of 2, further chain): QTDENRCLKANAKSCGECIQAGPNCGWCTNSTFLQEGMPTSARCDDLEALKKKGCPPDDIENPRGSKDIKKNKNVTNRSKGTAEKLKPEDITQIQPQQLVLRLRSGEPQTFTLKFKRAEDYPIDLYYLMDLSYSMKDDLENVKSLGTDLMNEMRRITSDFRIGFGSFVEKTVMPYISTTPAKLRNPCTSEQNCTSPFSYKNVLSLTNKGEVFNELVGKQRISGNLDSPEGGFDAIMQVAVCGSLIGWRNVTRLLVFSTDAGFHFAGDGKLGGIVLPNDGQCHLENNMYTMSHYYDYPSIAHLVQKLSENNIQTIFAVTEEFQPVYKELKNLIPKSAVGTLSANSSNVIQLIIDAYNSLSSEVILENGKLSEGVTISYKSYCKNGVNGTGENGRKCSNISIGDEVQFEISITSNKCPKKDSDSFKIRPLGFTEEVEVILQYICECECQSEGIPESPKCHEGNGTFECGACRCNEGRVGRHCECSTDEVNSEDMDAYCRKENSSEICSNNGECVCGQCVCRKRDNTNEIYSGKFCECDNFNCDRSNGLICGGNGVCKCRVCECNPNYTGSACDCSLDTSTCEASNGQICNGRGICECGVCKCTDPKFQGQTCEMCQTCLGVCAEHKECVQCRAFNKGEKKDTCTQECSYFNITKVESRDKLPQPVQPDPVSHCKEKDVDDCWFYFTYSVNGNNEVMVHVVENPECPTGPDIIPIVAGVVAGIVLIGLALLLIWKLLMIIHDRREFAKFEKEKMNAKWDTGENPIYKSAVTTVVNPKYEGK

In turn, “recombinant laminin-10 (human α5β1γ1 heterotrimer, α5 chain with C-terminal FLAG epitope) (from UniProt P07942 22-1786; P11047 34-1609) (ligand)” showed an inhibition of HT-1080 cell binding to r-laminin-10 by mAbs against either α3 or β1 of 80%.
